Source: patent US20180362631A1 (Eli Lilly, published 2018)
Where a chain is given by its changes, count along the chain named.

What was measured:
[1] = target: T1, human CXCL8 point mutant L49A (human, UniProt P10145 28-99, limits assumed); assay: cell-based or functional assay
human CXCL8 (IL-8) [2] = target: T2, human CXCL8 (IL-8) (human, UniProt P10145 28-99); assay: cell-based or functional assay
T2 sequence: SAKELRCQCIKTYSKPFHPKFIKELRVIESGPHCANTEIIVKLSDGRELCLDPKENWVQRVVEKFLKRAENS

human CXCL1 (Gro alpha) [3] = target: T3, human CXCL1 (Gro alpha) (human, UniProt P09341 35-107); assay: SPR (Biacore 2000), antibody captured on Protein A, chemokine as analyte, 25 C
T3 construct: also called human Gro-alpha
T3 sequence: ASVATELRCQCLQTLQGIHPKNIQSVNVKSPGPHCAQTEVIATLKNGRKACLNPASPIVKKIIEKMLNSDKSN
Protocol: (§1) Biacore 2000 instrument and Biacore 2000 Evaluation Software Version 4.1 are used for surface plasmon resonance analysis. A […] chip is prepared using manufacturer's EDC/NHS amine coupling method. Briefly, the surfaces of all four flow cells are activated by injecting a 1:1 mixture of EDC/NHS for 7 minutes at 10 μL/min. Protein A is diluted to 100 μg/mL in 10 mM acetate, pH 4.5 buffer, and immobilized to achieve approximately 10,000 RU onto all 4 flow cells by 7-minute injection at a flow rate of 10 μL/minute. Unreacted sites are blocked with a 7-minute injection of ethanolamine at 10 μL/minute. Two injections of glycine (pH 1.5) for 30 seconds at 10 μL/minute are used to remove any non-covalently associated protein. Running buffer is HBS-EP+.
(§2) Antibody 1 or Antibody 2 is diluted to 2 μg/mL in running buffer, and approximately 400-600 RU is captured in flow cell (Fc). Ligands are diluted from 100 μg/mL to 50 nM in running buffer and then two-fold serially diluted in running buffer to 3.125 nM. Duplicate injections of each ligand concentration are injected at 100 μL/min for 150 seconds followed by a dissociation phase. The dissociation phase is 1800 seconds for all ligands. Regeneration is performed by injecting 10 mM glycine (pH 1.5) for 60 seconds at […] over all flow cells. Reference-subtracted data is collected as Fc2-Fc1, Fc3-Fc1, and Fc4-Fc1. The measurements are obtained at 25° C. The on-rate (kₒₙ) and off-rate (koff) for each ligand are evaluated using a “1:1 (mass transfer) Binding” binding model. The affinity […] is calculated from the binding kinetics according to the relationship: KD=koff/kₒₙ.

human CXCL6 (GCP-2) = target: T4, human CXCL6 (GCP-2) (human, UniProt P80162 40-114); assay: as above
T4 construct: also called human GCP-2
T4 sequence: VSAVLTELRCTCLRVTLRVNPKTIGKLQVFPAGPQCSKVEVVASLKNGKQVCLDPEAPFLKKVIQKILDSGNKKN
Protocol: as §1, §2

human CXCL2 (Gro beta) = target: T5, human CXCL2 (Gro beta) (human, UniProt P19875 35-107); assay: as above
T5 construct: also called human Gro-beta
T5 sequence: T3 sequence with S2P, V3L, P20L, N27K, R48Q, I58M, N68K, S69N, D70G
Protocol: as §1, §2

human CXCL5 (ENA-78) = target: T6, human CXCL5 (ENA-78) (human, UniProt P42830 41-114); assay: as above
T6 construct: also called human ENA-78
T6 sequence: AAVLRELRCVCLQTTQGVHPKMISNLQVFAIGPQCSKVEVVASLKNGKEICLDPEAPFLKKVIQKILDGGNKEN
Protocol: as §1, §2

human CXCL8 (IL-8) [4] = target: T2, human CXCL8 (IL-8); assay: as above
Protocol: as §1, §2

human CXCL3 (Gro gamma) = target: T7, human CXCL3 (Gro gamma) (human, UniProt P19876 35-107); assay: as above
T7 construct: also called human Gro-gamma
T7 sequence: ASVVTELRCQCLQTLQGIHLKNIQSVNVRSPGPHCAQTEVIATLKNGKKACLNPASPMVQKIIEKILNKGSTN
Protocol: as §1, §2

human CXCL7 (NAP-2) = target: T8, human CXCL7 (NAP-2) (human, UniProt P02775 59-128); assay: as above
T8 construct: also called human NAP-2
T8 sequence: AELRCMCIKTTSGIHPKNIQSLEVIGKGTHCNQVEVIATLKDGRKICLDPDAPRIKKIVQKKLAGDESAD
Protocol: as §1, §2

[5] = target: T1, human CXCL8 point mutant L49A; assay: SPR (Biacore 2000), antibody captured on Protein A, CXCL8 variant as analyte, 25 C
Protocol: (§3) Binding kinetics are tested on a Biacore 2000 instrument with Biacore 2000 Evaluation Software Version 4.1 as described above.
(§4) The on-rate (kₒₙ) and off-rate (koff) for each ligand are evaluated using a “1:1 (mass transfer) Binding” binding model. The affinity (KD) is calculated from the binding kinetics according to the relationship: KD=koff/kₒₙ.

[6] = target: human CXCL8 point mutant I40A (human, UniProt P10145 28-99, limits assumed); assay: as above
Protocol: as §3, §4

[7] = target: human CXCL8 point mutant A35P (human, UniProt P10145 28-99, limits assumed); assay: as above
Protocol: as §3, §4

[8] = target: human CXCL8 point mutant I10A (human, UniProt P10145 28-99, limits assumed); assay: as above
Protocol: as §3, §4

human CXCL8 (IL-8) [9] = target: T2, human CXCL8 (IL-8); assay: as above
Protocol: as §3, §4

human CXCL1 (Gro alpha) [10] = target: T3, human CXCL1 (Gro alpha); assay: cell-based or functional assay
human CXCL8 (IL-8) [11] = target: T2, human CXCL8 (IL-8); assay: cell-based or functional assay; remark: listed apart in the source
[12] = target: human CXCL8 point mutant R6A (human, UniProt P10145 28-99, limits assumed); assay: SPR (Biacore 2000), antibody captured on Protein A

B1: Antibody 1 (antibody, human IgG4 S228P, kappa, V domains shown)
VH: QVQLVQSGAEVKKPGASVKVSCKASGYEFTSYWIHWVRQAPGQGLEWMGNISPNSGSANYNEKFKSRVTMTRDTSTSTVYMELSSLRSEDTAVYYCAREGPYSYYPSREYYGSDLWGQGTLVTVSS
VL: EIVLTQSPATLSLSPGERATLSCRASQSISNNLHWYQQKPGQAPRLLIYYTSRSVSGIPARFSGSGSGTDFTLTISSLEPEDFAVYYCGQNNEWPEVFGGGTKVEIKR
notes: Full-length IgG4 antibody expressed in NS0 cells
IC50 (U937 FLIPR neutralization) [1]: 1.5 µg/mL | IC50 (U937 FLIPR neutralization) (human CXCL8 (IL-8) [2]): 0.9 µg/mL | Kd (human CXCL1 (Gro alpha) [3]): 0.113 nM | koff (human CXCL1 (Gro alpha) [3]): 0.000105 s⁻¹ | kon (human CXCL1 (Gro alpha) [3]): 930000 M⁻¹ s⁻¹ | Kd (human CXCL6 (GCP-2)): 0.818 nM | koff (human CXCL6 (GCP-2)): 0.000578 s⁻¹ | kon (human CXCL6 (GCP-2)): 707000 M⁻¹ s⁻¹ | Kd (human CXCL2 (Gro beta)): 0.171 nM | koff (human CXCL2 (Gro beta)): 0.000131 s⁻¹ | kon (human CXCL2 (Gro beta)): 773000 M⁻¹ s⁻¹ | Kd (human CXCL5 (ENA-78)): 0.226 nM | koff (human CXCL5 (ENA-78)): 0.000122 s⁻¹ | kon (human CXCL5 (ENA-78)): 543000 M⁻¹ s⁻¹ | Kd (human CXCL8 (IL-8) [4]): 0.384 nM | koff (human CXCL8 (IL-8) [4]): 0.00013 s⁻¹ | kon (human CXCL8 (IL-8) [4]): 339000 M⁻¹ s⁻¹ | Kd (human CXCL3 (Gro gamma)): 0.172 nM | koff (human CXCL3 (Gro gamma)): 0.000123 s⁻¹ | kon (human CXCL3 (Gro gamma)): 716000 M⁻¹ s⁻¹ | Kd (human CXCL7 (NAP-2)): 0.181 nM | koff (human CXCL7 (NAP-2)): 0.000161 s⁻¹ | kon (human CXCL7 (NAP-2)): 900000 M⁻¹ s⁻¹ | Kd [5]: 3.83 nM | koff [5]: 0.000544 s⁻¹ | kon [5]: 143000 M⁻¹ s⁻¹ | Kd [6]: 27.1 nM | koff [6]: 0.000424 s⁻¹ | kon [6]: 16100 M⁻¹ s⁻¹ | Kd [7]: 4.74 nM | koff [7]: 0.00497 s⁻¹ | kon [7]: 1.06e+06 M⁻¹ s⁻¹ | Kd [8]: 1.26 nM | koff [8]: 0.000344 s⁻¹ | kon [8]: 277000 M⁻¹ s⁻¹ | Kd (human CXCL8 (IL-8) [9]): 0.236 nM | koff (human CXCL8 (IL-8) [9]): 0.000441 s⁻¹ | kon (human CXCL8 (IL-8) [9]): 3.03e+06 M⁻¹ s⁻¹ | IC50, chemotaxis of primary human neutrophils, CXCL1 at 5 nM (human CXCL1 (Gro alpha) [10]): 18.5 nM | IC50, chemotaxis of primary human neutrophils, CXCL1 at 20 nM (human CXCL1 (Gro alpha) [10]): 40.3 nM | IC50, chemotaxis of primary human neutrophils, CXCL8 at 5 nM (human CXCL8 (IL-8) [11]): 26.4 nM | IC50, chemotaxis of primary human neutrophils, CXCL8 at 10 nM (human CXCL8 (IL-8) [11]): 43.7 nM | binding result [12]: no binding

B2: Antibody 2 (antibody, human IgG4 S228P, kappa, V domains shown)
VH: B1 VH with E109Q
VL: B1 VL
notes: as for B1
Kd (human CXCL1 (Gro alpha) [3]): 0.243 nM | koff (human CXCL1 (Gro alpha) [3]): 0.000153 s⁻¹ | kon (human CXCL1 (Gro alpha) [3]): 628000 M⁻¹ s⁻¹ | Kd (human CXCL6 (GCP-2)): 0.849 nM | koff (human CXCL6 (GCP-2)): 0.000611 s⁻¹ | kon (human CXCL6 (GCP-2)): 719000 M⁻¹ s⁻¹ | Kd (human CXCL2 (Gro beta)): 0.18 nM | koff (human CXCL2 (Gro beta)): 2.05e-05 s⁻¹ | kon (human CXCL2 (Gro beta)): 114000 M⁻¹ s⁻¹ | Kd (human CXCL5 (ENA-78)): 0.354 nM | koff (human CXCL5 (ENA-78)): 0.000151 s⁻¹ | kon (human CXCL5 (ENA-78)): 427000 M⁻¹ s⁻¹ | Kd (human CXCL8 (IL-8) [4]): 0.473 nM | koff (human CXCL8 (IL-8) [4]): 0.000124 s⁻¹ | kon (human CXCL8 (IL-8) [4]): 261000 M⁻¹ s⁻¹ | Kd (human CXCL3 (Gro gamma)): 0.379 nM | koff (human CXCL3 (Gro gamma)): 0.000176 s⁻¹ | kon (human CXCL3 (Gro gamma)): 465000 M⁻¹ s⁻¹ | Kd (human CXCL7 (NAP-2)): 0.418 nM | koff (human CXCL7 (NAP-2)): 0.000218 s⁻¹ | kon (human CXCL7 (NAP-2)): 521000 M⁻¹ s⁻¹
